This is an account of results in publication PMC7334434.

The target of this assay is 14-3-3β (UniProt P31946). The assay can be described thus: co-IP. As to conditions: reference: wild type.

With TFEB (from UniProt P19484) S138A, the “binding against the reference” value (sites S138) was “weaker”.
On to TFEB (from UniProt P19484) S142A, for which the “binding against the reference” value (sites S142) is “weaker”.
